Measured values as given in patent US20140072613A1 (published 2014).

T1: MuSK(h) (human, UniProt O15146 517-869, limits assumed)
T1 sequence (looked up): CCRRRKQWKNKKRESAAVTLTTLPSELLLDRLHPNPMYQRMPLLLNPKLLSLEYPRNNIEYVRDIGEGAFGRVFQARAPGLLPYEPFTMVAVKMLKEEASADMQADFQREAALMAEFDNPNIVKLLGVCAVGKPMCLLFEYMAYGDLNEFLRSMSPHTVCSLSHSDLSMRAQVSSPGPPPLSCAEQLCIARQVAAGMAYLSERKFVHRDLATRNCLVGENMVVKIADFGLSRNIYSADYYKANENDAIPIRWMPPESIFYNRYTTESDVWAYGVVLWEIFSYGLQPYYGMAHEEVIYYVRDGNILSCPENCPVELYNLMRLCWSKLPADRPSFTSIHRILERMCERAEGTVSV

T2: PRAK(h) (human, UniProt Q8IW41 1-473, limits assumed)
T2 sequence (looked up): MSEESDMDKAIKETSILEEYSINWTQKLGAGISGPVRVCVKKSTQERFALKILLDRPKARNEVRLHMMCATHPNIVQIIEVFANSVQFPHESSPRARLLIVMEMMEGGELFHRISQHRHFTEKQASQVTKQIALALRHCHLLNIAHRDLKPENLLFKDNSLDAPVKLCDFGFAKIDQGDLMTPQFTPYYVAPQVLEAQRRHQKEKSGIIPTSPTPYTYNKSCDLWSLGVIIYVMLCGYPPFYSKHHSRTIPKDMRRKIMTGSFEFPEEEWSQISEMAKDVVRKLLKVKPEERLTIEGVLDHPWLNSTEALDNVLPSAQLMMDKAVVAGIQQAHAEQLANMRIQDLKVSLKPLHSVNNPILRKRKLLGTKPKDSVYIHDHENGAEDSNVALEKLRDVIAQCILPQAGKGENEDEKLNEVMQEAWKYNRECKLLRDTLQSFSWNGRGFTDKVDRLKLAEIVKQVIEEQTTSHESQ

T3: SGK3(h) (human, UniProt Q96BR1 1-496, limits assumed)
T3 sequence (looked up): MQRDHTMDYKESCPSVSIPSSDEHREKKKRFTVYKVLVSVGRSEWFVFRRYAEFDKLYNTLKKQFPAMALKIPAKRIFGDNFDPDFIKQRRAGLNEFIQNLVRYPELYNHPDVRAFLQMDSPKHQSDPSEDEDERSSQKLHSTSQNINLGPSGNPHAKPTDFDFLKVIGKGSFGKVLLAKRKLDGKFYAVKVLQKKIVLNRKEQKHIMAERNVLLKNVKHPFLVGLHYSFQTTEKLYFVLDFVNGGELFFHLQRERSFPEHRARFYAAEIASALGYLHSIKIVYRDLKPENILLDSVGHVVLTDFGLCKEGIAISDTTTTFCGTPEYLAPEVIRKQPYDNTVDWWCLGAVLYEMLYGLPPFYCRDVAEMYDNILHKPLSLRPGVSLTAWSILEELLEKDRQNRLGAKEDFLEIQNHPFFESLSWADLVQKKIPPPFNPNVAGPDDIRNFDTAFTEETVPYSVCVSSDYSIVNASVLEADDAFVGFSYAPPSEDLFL

T4: GRK7(h) (human, UniProt Q8WTQ7 1-553)
T4 sequence (looked up): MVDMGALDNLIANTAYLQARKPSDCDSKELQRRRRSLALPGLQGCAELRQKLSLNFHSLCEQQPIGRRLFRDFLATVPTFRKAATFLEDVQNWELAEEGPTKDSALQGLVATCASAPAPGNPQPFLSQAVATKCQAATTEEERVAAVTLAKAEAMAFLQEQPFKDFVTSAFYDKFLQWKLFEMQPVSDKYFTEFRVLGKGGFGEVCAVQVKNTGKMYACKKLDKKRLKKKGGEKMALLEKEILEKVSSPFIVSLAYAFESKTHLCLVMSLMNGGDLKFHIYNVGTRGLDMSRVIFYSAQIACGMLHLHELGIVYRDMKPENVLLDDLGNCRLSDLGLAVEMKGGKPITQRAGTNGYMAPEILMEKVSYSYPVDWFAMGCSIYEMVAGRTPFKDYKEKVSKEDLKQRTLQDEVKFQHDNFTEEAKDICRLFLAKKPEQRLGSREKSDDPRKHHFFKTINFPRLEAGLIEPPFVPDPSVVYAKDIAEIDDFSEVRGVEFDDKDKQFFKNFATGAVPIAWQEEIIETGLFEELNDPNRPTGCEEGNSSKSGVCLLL

T5: Mer(h) (human, UniProt Q12866 578-872, limits assumed)
T5 sequence (looked up): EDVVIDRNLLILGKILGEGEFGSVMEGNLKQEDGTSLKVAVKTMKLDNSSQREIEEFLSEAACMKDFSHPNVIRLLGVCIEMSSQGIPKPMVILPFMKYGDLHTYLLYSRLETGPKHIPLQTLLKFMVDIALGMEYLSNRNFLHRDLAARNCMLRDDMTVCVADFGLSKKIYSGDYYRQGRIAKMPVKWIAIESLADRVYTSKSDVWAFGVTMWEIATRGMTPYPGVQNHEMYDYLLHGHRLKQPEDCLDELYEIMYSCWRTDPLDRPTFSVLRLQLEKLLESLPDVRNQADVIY


Tests used:
Assay in all cases: cell-based or functional assay
[1] = biological target: Met(Y1248C)(h) (human, UniProt P08581-2 974-1408, limits assumed)
[2] = biological target: PASK(h) (human, UniProt Q96RG2 879-1323, limits assumed)
[3] = biological target: CDK2/cyclinE(h) (human, UniProt P24941 1-298; P24864 1-410)
[4] = biological target: Snk(h) (human, UniProt Q9NYY3 1-685, limits assumed)
[5] = biological target: MLCK(h) (human)
[6] = biological target: FGFR1(V561M)(h) (human, UniProt P11362 456-765, limits assumed)
[7] = biological target: T1, MuSK(h)
[8] = biological target: T2, PRAK(h)
[9] = biological target: T3, SGK3(h)
[10] = biological target: T4, GRK7(h)
[11] = biological target: MRCKα(h) (human, UniProt Q5VT25 1-473, limits assumed)
[12] = biological target: T5, Mer(h)
[13] = biological target: PAK6(h) (human, UniProt Q9NQU5 1-681, limits assumed)
Sequence of PAK6(h) (Q9NQU5 whole entry): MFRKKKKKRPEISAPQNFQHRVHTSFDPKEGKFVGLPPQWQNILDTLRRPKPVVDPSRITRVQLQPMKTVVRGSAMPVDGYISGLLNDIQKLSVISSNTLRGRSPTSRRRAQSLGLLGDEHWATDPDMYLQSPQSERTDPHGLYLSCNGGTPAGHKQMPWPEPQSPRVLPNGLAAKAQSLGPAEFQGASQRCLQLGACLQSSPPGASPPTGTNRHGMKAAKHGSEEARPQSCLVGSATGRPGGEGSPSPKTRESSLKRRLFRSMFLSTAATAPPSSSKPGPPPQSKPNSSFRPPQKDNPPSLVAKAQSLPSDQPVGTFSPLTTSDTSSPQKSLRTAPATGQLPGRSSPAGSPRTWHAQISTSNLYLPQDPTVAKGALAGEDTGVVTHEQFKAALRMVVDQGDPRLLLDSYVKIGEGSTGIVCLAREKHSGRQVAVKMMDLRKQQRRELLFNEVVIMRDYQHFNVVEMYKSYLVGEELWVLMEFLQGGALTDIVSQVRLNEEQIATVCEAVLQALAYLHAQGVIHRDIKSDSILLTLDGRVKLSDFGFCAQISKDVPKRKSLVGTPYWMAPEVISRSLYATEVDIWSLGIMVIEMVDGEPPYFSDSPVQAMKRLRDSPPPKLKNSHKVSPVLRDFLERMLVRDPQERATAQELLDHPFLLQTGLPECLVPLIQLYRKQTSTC

Sequence of FGFR1(V561M)(h) (P11362 456-765 V561M limits assumed): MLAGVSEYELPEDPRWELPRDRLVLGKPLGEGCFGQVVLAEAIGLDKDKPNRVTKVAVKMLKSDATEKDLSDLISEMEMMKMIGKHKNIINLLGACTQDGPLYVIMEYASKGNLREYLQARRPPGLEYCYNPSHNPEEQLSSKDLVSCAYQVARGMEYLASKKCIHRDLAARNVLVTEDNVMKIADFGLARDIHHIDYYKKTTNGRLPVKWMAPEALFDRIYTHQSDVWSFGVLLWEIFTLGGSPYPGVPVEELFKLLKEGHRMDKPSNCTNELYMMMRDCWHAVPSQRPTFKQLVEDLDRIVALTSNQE
Sequence of MRCKα(h) (Q5VT25 1-473 limits assumed): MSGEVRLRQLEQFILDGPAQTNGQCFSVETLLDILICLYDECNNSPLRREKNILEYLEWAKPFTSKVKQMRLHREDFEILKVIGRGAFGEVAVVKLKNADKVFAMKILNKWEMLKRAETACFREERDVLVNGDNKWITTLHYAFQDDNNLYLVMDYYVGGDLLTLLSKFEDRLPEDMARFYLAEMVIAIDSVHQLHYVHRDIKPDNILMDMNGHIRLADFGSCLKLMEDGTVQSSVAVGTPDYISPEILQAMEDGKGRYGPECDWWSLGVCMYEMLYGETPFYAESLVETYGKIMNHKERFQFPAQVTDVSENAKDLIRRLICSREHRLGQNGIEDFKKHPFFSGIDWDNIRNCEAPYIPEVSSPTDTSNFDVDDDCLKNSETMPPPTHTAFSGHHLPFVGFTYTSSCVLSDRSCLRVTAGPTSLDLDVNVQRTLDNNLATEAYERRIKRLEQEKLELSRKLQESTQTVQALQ
Sequence of PASK(h) (Q96RG2 879-1323 limits assumed): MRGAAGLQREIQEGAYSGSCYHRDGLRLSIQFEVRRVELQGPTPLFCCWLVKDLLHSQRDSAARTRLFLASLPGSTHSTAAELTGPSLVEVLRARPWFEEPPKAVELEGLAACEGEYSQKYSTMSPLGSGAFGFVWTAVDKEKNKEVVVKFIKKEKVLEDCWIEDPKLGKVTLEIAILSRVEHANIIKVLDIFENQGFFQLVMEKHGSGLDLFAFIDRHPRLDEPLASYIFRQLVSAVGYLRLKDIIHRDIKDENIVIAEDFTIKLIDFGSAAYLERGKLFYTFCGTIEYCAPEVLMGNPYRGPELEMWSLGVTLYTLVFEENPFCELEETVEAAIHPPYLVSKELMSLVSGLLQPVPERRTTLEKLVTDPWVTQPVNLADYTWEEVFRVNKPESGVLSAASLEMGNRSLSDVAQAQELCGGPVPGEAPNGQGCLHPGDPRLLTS
Sequence of Snk(h) (Q9NYY3 whole entry): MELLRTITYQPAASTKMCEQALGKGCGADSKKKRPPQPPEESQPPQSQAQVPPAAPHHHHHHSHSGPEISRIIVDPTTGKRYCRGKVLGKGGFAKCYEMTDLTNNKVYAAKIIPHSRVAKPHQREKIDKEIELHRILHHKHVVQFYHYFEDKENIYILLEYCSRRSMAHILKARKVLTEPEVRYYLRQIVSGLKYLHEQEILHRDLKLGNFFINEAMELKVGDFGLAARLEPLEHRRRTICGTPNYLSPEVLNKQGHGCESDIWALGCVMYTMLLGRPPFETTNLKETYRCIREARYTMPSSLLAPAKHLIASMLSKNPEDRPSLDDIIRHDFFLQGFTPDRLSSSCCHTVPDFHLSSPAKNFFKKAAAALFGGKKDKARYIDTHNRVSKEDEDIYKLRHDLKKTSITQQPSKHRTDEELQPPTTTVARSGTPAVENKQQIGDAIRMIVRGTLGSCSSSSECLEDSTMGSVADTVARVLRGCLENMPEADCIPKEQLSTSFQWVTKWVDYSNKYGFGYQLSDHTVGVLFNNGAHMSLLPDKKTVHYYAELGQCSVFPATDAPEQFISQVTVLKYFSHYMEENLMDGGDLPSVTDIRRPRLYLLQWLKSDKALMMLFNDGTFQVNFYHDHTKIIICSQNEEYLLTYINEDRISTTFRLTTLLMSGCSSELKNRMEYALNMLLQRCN

Binder	% activity, 100 µM [1] [%]	% activity, 100 µM [2] [%]	% activity, 100 µM [3] [%]	% activity, 100 µM [4] [%]	% activity, 100 µM [5] [%]	% activity, 100 µM [6] [%]	% activity, 100 µM [7] [%]	% activity, 100 µM [8] [%]	% activity, 100 µM [9] [%]	% activity, 100 µM [10] [%]	% activity, 100 µM [11] [%]	% activity, 100 µM [12] [%]	% activity, 100 µM [13] [%]
KAFAKLAARLYRKALARQLGVAA [MMI-0400]	36	28	83	131	1	74	93	118	8	100	97	50	100
FAKLAARLYRKALARQLGVAA [MMI-0300]	84	29	94	114	2	74	93	128	10	122	104	52	104
